Measurements reported in US20110045489A1, “Polymerases for Incorporating Modified Nucleotides” (NEW ENGLAND BIOLABS, INC., priority 2008, published 2011).
Substitutions are numbered along the chain they refer to. In names and notes the source's numbering stands.

B1: 9° N D141A/E143A/N491V/Y494H: 9° N DNA polymerase mutant (protein, UniProt Q56366 1-775, looked up, variant D141A E143A N491V Y494H)
DNA polymerase: MILDTDYITENGKPVIRVFKKENGEFKIEYDRTFEPYFYALLKDDSAIEDVKKVTAKRHGTVVKVKRAEKVQKKFLGRPIEVWKLYFNHPQDVPAIRDRIRAHPAVVDIYEYDIPFAKRYLIDKGLIPMEGDEELTMLAFAIATLYHEGEEFGTGPILMISYADGSEARVITWKKIDLPYVDVVSTEKEMIKRFLRVVREKDPDVLITYNGDNFDFAYLKKRCEELGIKFTLGRDGSEPKIQRMGDRFAVEVKGRIHFDLYPVIRRTINLPTYTLEAVYEAVFGKPKEKVYAEEIAQAWESGEGLERVARYSMEDAKVTYELGREFFPMEAQLSRLIGQSLWDVSRSSTGNLVEWFLLRKAYKRNELAPNKPDERELARRRGGYAGGYVKEPERGLWDNIVYLDFRSLYPSIIITHNVSPDTLNREGCKEYDVAPEVGHKFCKDFPGFIPSLLGDLLEERQKIKRKMKATVDPLEKKLLDYRQRAIKILAVSFHGYYGYAKARWYCKECAESVTAWGREYIEMVIRELEEKFGFKVLYADTDGLHATIPGADAETVKKKAKEFLKYINPKLPGLLELEYEGFYVRGFFVTKKKYAVIDEEGKITTRGLEIVRRDWSEIAKETQARVLEAILKHGDVEEAVRIVKEVTEKLSKYEVPPEKLVIHEQITRDLRDYKATGPHVAVAKRLAARGVKIRPGTVISYIVLKGSGRIGDRAIPADEFDPTKHRYDAEYYIENQVLPAVERILKAFGYRKEDLRYQKTKQVGLGAWLKVKGKK
B2: 9° N D141A/E143A/Y409A/R406V: 9° N DNA polymerase mutant (protein, UniProt Q56366 1-775, looked up, variant D141A E143A Y409A R406V)
DNA polymerase: B1 DNA polymerase with R406V, Y409A, V491N, H494Y
B3: 9° N exo-P410V: 9° N DNA polymerase mutant (protein, UniProt Q56366 1-775, looked up, variant D141A E143A P410V)
DNA polymerase: B1 DNA polymerase with P410V, V491N, H494Y
B4: 9° N D141A/E143A/R406V/L408R: 9° N DNA polymerase mutant (protein, UniProt Q56366 1-775, looked up, variant D141A E143A R406V L408R)
DNA polymerase: B1 DNA polymerase with R406V, L408R, V491N, H494Y
B5: 9° N D141A/E143A/Y409A/R406S/L408K: 9° N DNA polymerase mutant (protein, UniProt Q56366 1-775, looked up, variant D141A E143A Y409A R406S L408K)
DNA polymerase: B1 DNA polymerase with R406S, L408K, Y409A, V491N, H494Y
B6: 9° N D141A/E143A/R406P/L408G: 9° N DNA polymerase mutant (protein, UniProt Q56366 1-775, looked up, variant D141A E143A R406P L408G)
DNA polymerase: B1 DNA polymerase with R406P, L408G, V491N, H494Y
B7: 9° N D141A/E143A/Y409A/R406V/A485L: 9° N DNA polymerase mutant (protein, UniProt Q56366 1-775, looked up, variant D141A E143A Y409A R406V A485L)
DNA polymerase: B1 DNA polymerase with R406V, Y409A, A485L, V491N, H494Y
B8: 9° N D141A/E143A/R406S/L408R: 9° N DNA polymerase mutant (protein, UniProt Q56366 1-775, looked up, variant D141A E143A R406S L408R)
DNA polymerase: B1 DNA polymerase with R406S, L408R, V491N, H494Y
B9: 9° N D141A/E143A/Y409A/R406V/L408Y: 9° N DNA polymerase mutant (protein, UniProt Q56366 1-775, looked up, variant D141A E143A Y409A R406V L408Y)
DNA polymerase: B1 DNA polymerase with R406V, L408Y, Y409A, V491N, H494Y
B10: 9° N D141A/E143A/R406T/L408R: 9° N DNA polymerase mutant (protein, UniProt Q56366 1-775, looked up, variant D141A E143A R406T L408R)
DNA polymerase: B1 DNA polymerase with R406T, L408R, V491N, H494Y
B11: 9° N D141A/E143A/Y409A/R406S/L408R: 9° N DNA polymerase mutant (protein, UniProt Q56366 1-775, looked up, variant D141A E143A Y409A R406S L408R)
DNA polymerase: B1 DNA polymerase with R406S, L408R, Y409A, V491N, H494Y
B12: 9° N D141A/E143A/Y409A/R406H/L408G: 9° N DNA polymerase mutant (protein, UniProt Q56366 1-775, looked up, variant D141A E143A Y409A R406H L408G)
DNA polymerase: B1 DNA polymerase with R406H, L408G, Y409A, V491N, H494Y
B13: 9° N D141A/E143A/Y409A/R406S/L408I: 9° N DNA polymerase mutant (protein, UniProt Q56366 1-775, looked up, variant D141A E143A Y409A R406S L408I)
DNA polymerase: B1 DNA polymerase with R406S, L408I, Y409A, V491N, H494Y
B14: 9° N D141A/E143A/Y409A/R406T/L408R: 9° N DNA polymerase mutant (protein, UniProt Q56366 1-775, looked up, variant D141A E143A Y409A R406T L408R)
DNA polymerase: B1 DNA polymerase with R406T, L408R, Y409A, V491N, H494Y
B15: 9° N D141A/E143A/Y409A/R406L/L408G: 9° N DNA polymerase mutant (protein, UniProt Q56366 1-775, looked up, variant D141A E143A Y409A R406L L408G)
DNA polymerase: B1 DNA polymerase with R406L, L408G, Y409A, V491N, H494Y
B16: 9° N D141A/E143A/Y409A/R406Y/L408G: 9° N DNA polymerase mutant (protein, UniProt Q56366 1-775, looked up, variant D141A E143A Y409A R406Y L408G)
DNA polymerase: B1 DNA polymerase with R406Y, L408G, Y409A, V491N, H494Y
B17: 9° N D141A/E143A/R406L/L408E: 9° N DNA polymerase mutant (protein, UniProt Q56366 1-775, looked up, variant D141A E143A R406L L408E)
DNA polymerase: B1 DNA polymerase with R406L, L408E, V491N, H494Y
B18: 9° N D141A/E143A/R406E/L408G: 9° N DNA polymerase mutant (protein, UniProt Q56366 1-775, looked up, variant D141A E143A R406E L408G)
DNA polymerase: B1 DNA polymerase with R406E, L408G, V491N, H494Y
B19: 9° N D141A/E143A/R406T/L408E: 9° N DNA polymerase mutant (protein, UniProt Q56366 1-775, looked up, variant D141A E143A R406T L408E)
DNA polymerase: B1 DNA polymerase with R406T, L408E, V491N, H494Y
B20: 9° N D141A/E143A/Y409A/R406P/L408C: 9° N DNA polymerase mutant (protein, UniProt Q56366 1-775, looked up, variant D141A E143A Y409A R406P L408C)
DNA polymerase: B1 DNA polymerase with R406P, L408C, Y409A, V491N, H494Y
B21: 9° N D141A/E143A/Y409A/R406T/L408K: 9° N DNA polymerase mutant (protein, UniProt Q56366 1-775, looked up, variant D141A E143A Y409A R406T L408K)
DNA polymerase: B1 DNA polymerase with R406T, L408K, Y409A, V491N, H494Y
B22: Mma D153A/E155A/L417S/P419V: Methanococcus maripaludis DNA polymerase mutant (protein)
chain: MESLIDLDYNSDDLCIYLYLINSIIKEKDFKPYFYVNSTDKEQILEFLKDYEKKHKLDSEISKMIENIETVKKIVFDENYQEKELSKVTVKYPNNVKTVREILMEFERLYEYDIPFVRRYLIDNSVIPTSTWDFENNKKIDNKIPDFKTVSFAIAVYCNKEPNPKKDPIIMASFSSKDFNTVVSTKKFDHEKLEYVKDEKELIKRIIEILKEYDIIYTYNGDNFDFPYLKKRAESFGLELKLGKNDEKIKITKGGMNSKSYIPGRVHIDLYPIARRLLNLTKYRLENVTEALFDVKKVDVGHENIPKMWDNLDETLVEYSHQDAYYTQRIGEQFLPLEIMFSRVVNQSLYDINRMSSSQMVEYLLLKNSYKMGVIAPNRPSGKEYQKRIRSSYEGGYVKEPLKGIHEDIVSMDFLSSYVSIIMSHNLSPETIDCTCCSDEENGENEEILGHKFCKKSIGIIPKTLMDLINRRKKVKKVLREKAEKGEFDEEYQILDYEQRSIKVLANSHYGYLAFPMARWYSRDCAEITTHLGRQYIQKTIEEAENFGFKVIYADTDGFYSKWADDKEKLSKYELLEKTREFLKNINNTLPGEMELEFEGYFKRGIFVTKKKYALIDENEKITVKGLEVVRRDWSNVSKNTQKNVLNALLKEGSVENAKKVIQDTIKELKDGKVNNEDLLIHTQLTKRIEDYKTTAPHVEVAKKILKSGNRVNTGDVISYIITSGNKSISERAEILENAKNYDTNYYIENQILPPVIRLMEALGITKDELKDSKKQYTLHHFLK

What follows are molecules tested on modified nucleotide (assay: Screen of DNA polymerase mutants for modified nucleotide incorporation).
Assay type: biochemical
Description: In order to determine the extent of 3′-modified nucleotide incorporation by archaeon DNA polymerases, the titration assay described by Gardner and Jack (2002) was used. In this assay, the efficiency of incorporation of chain terminators was judged by the size of the reaction products in a polymerization reaction. As the efficiency of chain-terminator incorporation increased, the average reaction product size decreased because polymerization was more often halted by terminator addition. By comparing the amount of terminator required to give the same spectrum of reaction products, the relative efficiency of incorporation of the test compounds with the different polymerases was determined.
A complex library of 9° N DNA polymerase mutants was screened for enhanced incorporation of 3′-azido-ddCTP. Several classes of 9° N DNA polymerase mutants were identified with enhanced terminator incorporation. 9° N exo-L408S/Y409A/P410V (Therminator III™, NEB, Inc., Ipswich, Mass.) was purified and characterized in more detail. 9° N DNA polymerase single mutants P410V, L408S, and Y409A and double mutants L408S/P410V, L408S/Y409A, and Y409A/P410V were also purified for comparison. Purification and characterization of DNA polymerase mutants was as described in Gardner and Jack, Nucleic Acids Res. 27:2545-2553 (1999).
A library of 9° N DNA polymerase mutants was constructed by PCR amplification of the polymerase genes using gene-specific primers or codon optimization and gene synthesis Czar et al. Trends Biotechnol 27(2): 63-72 (2009)). The ability to incorporate 3′-modified nucleotide terminators was evaluated by the titration assay for chain terminator incorporation efficiency as described by Gardner and Jack (2002).
Furthermore, the same assay was used to measure 3′-amino-ddCTP incorporation by 9° N exo-L408S/Y409A/P410V (FIG. 3) and to measure rates of incorporation (FIG. 4). Examples of mutants that increased modified nucleotide incorporation by at least two-fold were: […]

Increase of modified nucleotide incorporation, at least two-fold:
B1
B2
B3
B4
B5
B6
B7
B8
B9
B10
B11
B12
B13
B14
B15
B16
B17
B18
B19
B20
B21
B22
